# B1: Mitazalimab: agonistic, human monoclonal (IgG1) antibody targeting CD40 (antibody, chains of the INN, looked up, V domains shown)
# VH: EVQLLESGGGLVQPGGSLRLSCAASGFTFSTYGMHWVRQAPGKGLEWLSYISGGSSYIFYADSVRGRFTISRDNSENALYLQMNSLRAEDTAVYYCARILRGGSGMDLWGQGTLVTVSS
# VL: QSVLTQPPSASGTPGQRVTISCTGSSSNIGAGYNVYWYQQLPGTAPKLLIYGNINRPSGVPDRFSGSKSGTSASLAISGLRSEDEADYYCAAWDKSISGLVFGGGTKLTVL
# Experiments:
# CD40 = molecular target: T1, CD40 (Homo sapiens, UniProt P25942); conditions: human monocyte-derived DC cultures; cited from earlier work
# T1 construct: validated in vitro in human monocyte-derived DC cultures; endogenous in cells; host or cells: human monocyte-derived dendritic cells
# T1 sequence (P25942 21-277): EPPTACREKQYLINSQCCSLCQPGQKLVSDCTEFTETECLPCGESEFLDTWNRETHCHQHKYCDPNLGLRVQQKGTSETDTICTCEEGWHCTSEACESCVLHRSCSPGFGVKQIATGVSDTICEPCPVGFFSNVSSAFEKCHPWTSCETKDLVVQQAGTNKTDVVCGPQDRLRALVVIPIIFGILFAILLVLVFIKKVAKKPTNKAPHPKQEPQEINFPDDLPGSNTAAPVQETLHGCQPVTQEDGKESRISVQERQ
# [1] = tested on: tumour associated macrophages (TAMs); conditions: TAMs from human prostate and ovarian tumour samples; cited from earlier work
# [2] = tested on: IFN-γ, MCP-1, B cell margination, B cell activation; assay: OPTIMIZE-1 peripheral blood pharmacodynamics (cytokines/chemokines, immunophenotyping); assay type: in vivo, human; conditions: 450 and 900 μg/kg mitazalimab
# Source text: The aim with the pharmacodynamic biomarkers is to characterize changes in intratumoural and systemic immune activation associated with mode of action of mitazalimab and correlate pharmacodynamic effects with clinical response. Disease progression and treatment response will also be followed with liquid biopsies, analysing biomarkers such as Carbohydrate antigen 19-9 (CA19-9) and circulating tumour DNA (ctDNA). All biomarker analyses in blood and tumour biopsies may be exploratory in nature. All exploratory analyses were performed at a fit-for-purpose laboratory, as the data from the analyses are for scientific use and decision making only. […]
# Different types of blood samples will be taken and the following pharmacodynamic biomarkers may be evaluated: • Cytokines and chemokines: Serum samples are to be analysed for levels of cytokines and chemokines involved in the immune activation of mitazalimab, including but not limited to IFN-γ, TNF-α, IL12p70, IL-6, MCP-1, IP-10, MIP-1α, MIP-1β and IL-8; e.g., using a 30-plex kit with Luminex, MSD or similar. • Immune phenotyping: Whole blood samples will be used for immunophenotyping of whole blood for quantification of immune cell populations and immune cell activation directly or indirectly involved with immune activation of mitazalimab using flow cytometry. […]
# [3] = tested on: human tumours transplanted into NSG mice; bladder cancer cells in hCD40tg mice; conditions: cited from earlier work
molecule,measurement,setting,value
B1,"activation markers (CD80, CD86) on DCs and release of IL-12",CD40,up-regulation of activation markers on the surface of DCs
same,polarization of TAMs (upregulation of e.g. CD83),[1],from a more immune-suppressive phenotype into a more immune-inflammatory phenotype
same,"cytokines and chemokines (IFN-γ, MCP-1) in peripheral blood",[2],increases in peripheral blood were observed
same,immunity to tumour re-challenge,[3]; bladder cancer cells in hCD40tg mice,at least 5 months
same,effect on tumour growth and survival in combination,"[3]; combined with checkpoint inhibitors, vaccination or chemotherapy (e.g. mFOLFIRINOX), hCD40tg mice",synergistically enhanced effect
same,anti-tumour efficacy in vivo,[3]; human tumours in NSG mice and hCD40tg mice,immune-mediated and antibody-dependent cell-mediated cytotoxicity (ADCC)-dependent anti-tumour efficacy

# — patent publication US20260055200A1, “COMBINATION THERAPIES” (Alligator Bioscience AB, priority 2022, published 2026)
